Results as given in US20260248972A1, “DUAL RECEPTOR TARGETING RADIOLIGANDS AND USES THEREOF RELATED APPLICATIONS” (priority 2022, published 2026).
*1 amine or outer side, *2 acyl side, *3 side chain or, on linkers, in order; H or OH if unused. Where a SMILES comes first, the peptide text is derived from it. Bridges are numbered along the chain shown (N, C = ends). Side-chain parts run from the residue outwards. [ ]: non-standard residue; d: D form. The star is where a group is joined. X1 = CC(C)(C)C(=O)CN1C(=O)[C@H](N*)CN(C2CCCCC2)c2ccccc21; DOTA = O=C(O)CN1CCN(CC(=O)O)CCN(CC(=O)*)CCN(CC(=O)O)CC1; 3Abz = Nc1cccc(C(=O)O)c1; CO = O=C([*:1])[*:2]

Assay: in vivo
Conditions: BALB/c nude, mouse, in vivo, iv, total radioactivity
Procedure: To a 0.5 M NaOAc buffer (20-50 μL, pH=4.5) was added 4 μL of exemplary or comparator compound in DMSO stock solution (2000 μM) and 2 mCi ^177Lu (ITM Isotope Technologies Munich), the resulting mixture was heated to 95° C. for 15 min. The resulting product was analyzed by radio-TLC and radio-HPLC (column: Shim-pack GIST 5 μm 4.6*150 mm; buffer A: 0.2% formic acid H2O; buffer B: 0.1% formic acid acetonitrile; flow rate: 1 mL/min; gradient: 0-5 min: 10% B to 95% B; then 5-8 min: 95% B). The labelled products were used immediately or diluted by a PBS buffer containing freshly added 3 mg/mL ascorbate.
All animal care and experimental procedure were performed by following the animal protocols approved by the ethics committee of China Institute of Radiation Protection. The BALB/c nude mice (Charles River, Beijing) were utilized for these studies. Mice were below 5 per cage in sterile, microisolator cages under temperature- and humidity-controlled conditions with a 12 h light/12 h dark schedule and fed irradiated rodent chow and reverse osmosis (RO) sterile water ad libitum. In preparation for tumor cell inoculations, mice were anesthetized with isoflurane (RWD Life Science Inc.) at an induction rate of 4% and maintained at a rate of 2.5% with 0.4 L oxygen delivered via precision vaporizer and a non-rebreathing apparatus. These mice received subcutaneous rear flank injections of approximately 4×10^6 AR42J cells ([…] pancreatic cancer cell line) suspended in 200 μL of phosphate-buffered saline (PBS) and Matrigel (Corning) (1/1). Xenografted tumors were allowed to grow for ~2-4 weeks post-inoculation and ranged in mass from 0.05 to 0.50 g (average tumor size, 0.20 g). […] The mice were euthanized, and the tissues and organs were excised from the animals at 4, 24 and 72 h post-injection. The tissues and organs were weighed, counted in a PerkinElmer 2480 WIZARD2 γ counter, and the percent injected dose (% ID) and % ID/g of each organ or tissue were calculated.

C[C@@H](O)[C@H](NC(=O)[C@@H]1CSSC[C@H](NC(=O)[C@@H](Cc2ccccc2)NC(=O)COCCOCCNC(=O)[C@H](CCCCNC(=O)c2cccc(NC(=O)N[C@@H]3CN(C4CCCCC4)c4ccccc4N(CC(=O)C(C)(C)C)C3=O)c2)NC(=O)CN2CCN(CC(=O)O)CCN(CC(=O)O)CCN(CC(=O)O)CC2)C(=O)N[C@@H](Cc2ccc(O)cc2)C(=O)N[C@H](Cc2c[nH]c3ccccc23)C(=O)N[C@@H](CCCCN)C(=O)N[C@@H]([C@@H](C)O)C(=O)N1)C(=O)O [Compound 177Lu-I-37, metal not drawn]
tissue uptake at 4 h (% ID/g Adrenal gland): 2.01 %ID/g
tissue uptake at 24 h (% ID/g Adrenal gland): 1.43 %ID/g
tissue uptake at 72 h (% ID/g Adrenal gland): 0.22 %ID/g
tissue uptake at 4 h (% ID/g Blood): 0.94 %ID/g
tissue uptake at 24 h (% ID/g Blood): 0.18 %ID/g
tissue uptake at 72 h (% ID/g Blood): 0.05 %ID/g
tissue uptake at 4 h (% ID/g Fat): 3.28 %ID/g
tissue uptake at 24 h (% ID/g Fat): 0.4 %ID/g
tissue uptake at 72 h (% ID/g Fat): 0.32 %ID/g
tissue uptake at 4 h (% ID/g Femur): 0.83 %ID/g
tissue uptake at 24 h (% ID/g Femur): 0.26 %ID/g
tissue uptake at 72 h (% ID/g Femur): 0.18 %ID/g
tissue uptake at 4 h (% ID/g Heart): 1.12 %ID/g
tissue uptake at 24 h (% ID/g Heart): 0.4 %ID/g
tissue uptake at 72 h (% ID/g Heart): 0.15 %ID/g
tissue uptake at 4 h (% ID/g Intestine): 2.17 %ID/g
tissue uptake at 24 h (% ID/g Intestine): 0.67 %ID/g
tissue uptake at 72 h (% ID/g Intestine): 0.5 %ID/g
tissue uptake at 4 h (% ID/g Kidney): 22.5 %ID/g
tissue uptake at 24 h (% ID/g Kidney): 7.79 %ID/g
tissue uptake at 72 h (% ID/g Kidney): 3.16 %ID/g
tissue uptake at 4 h (% ID/g Liver): 11 %ID/g
tissue uptake at 24 h (% ID/g Liver): 2.4 %ID/g
tissue uptake at 72 h (% ID/g Liver): 2.03 %ID/g
tissue uptake at 4 h (% ID/g Lung): 4.42 %ID/g
tissue uptake at 24 h (% ID/g Lung): 1.38 %ID/g
tissue uptake at 72 h (% ID/g Lung): 1.41 %ID/g
tissue uptake at 4 h (% ID/g Muscle): 0.38 %ID/g
tissue uptake at 24 h (% ID/g Muscle): 0.1 %ID/g
tissue uptake at 72 h (% ID/g Muscle): 0.03 %ID/g
tissue uptake at 4 h (% ID/g Pancreas): 4.5 %ID/g
tissue uptake at 24 h (% ID/g Pancreas): 0.68 %ID/g
tissue uptake at 72 h (% ID/g Pancreas): 0.19 %ID/g
tissue uptake at 4 h (% ID/g Spleen): 0.8 %ID/g
tissue uptake at 24 h (% ID/g Spleen): 0.2 %ID/g
tissue uptake at 72 h (% ID/g Spleen): 0.13 %ID/g
tissue uptake at 4 h (% ID/g Stomach): 6.95 %ID/g
tissue uptake at 24 h (% ID/g Stomach): 2.58 %ID/g
tissue uptake at 72 h (% ID/g Stomach): 2.13 %ID/g
tissue uptake at 4 h (% ID/g Tumor): 48.7 %ID/g
tissue uptake at 24 h (% ID/g Tumor): 23.1 %ID/g
tissue uptake at 72 h (% ID/g Tumor): 21.4 %ID/g

C[C@@H](O)[C@H](NC(=O)[C@@H]1CSSC[C@H](NC(=O)[C@@H](Cc2ccccc2)NC(=O)COCCOCCNC(=O)COCCOCCNC(=O)[C@H](CCCCNC(=O)c2cccc(NC(=O)N[C@@H]3CN(C4CCCCC4)c4ccccc4N(CC(=O)C(C)(C)C)C3=O)c2)NC(=O)CN2CCN(CC(=O)O)CCN(CC(=O)O)CCN(CC(=O)O)CC2)C(=O)N[C@@H](Cc2ccc(O)cc2)C(=O)N[C@H](Cc2c[nH]c3ccccc23)C(=O)N[C@@H](CCCCN)C(=O)N[C@@H]([C@@H](C)O)C(=O)N1)C(=O)O [Compound 177Lu-I-39, metal not drawn]
tissue uptake at 4 h (% ID/g Adrenal gland): 1.33 %ID/g
tissue uptake at 24 h (% ID/g Adrenal gland): 1.06 %ID/g
tissue uptake at 72 h (% ID/g Adrenal gland): 0.3 %ID/g
tissue uptake at 4 h (% ID/g Blood): 0.91 %ID/g
tissue uptake at 24 h (% ID/g Blood): 0.33 %ID/g
tissue uptake at 72 h (% ID/g Blood): 0.06 %ID/g
tissue uptake at 4 h (% ID/g Fat): 3.38 %ID/g
tissue uptake at 24 h (% ID/g Fat): 1.07 %ID/g
tissue uptake at 72 h (% ID/g Fat): 0.27 %ID/g
tissue uptake at 4 h (% ID/g Femur): 0.9 %ID/g
tissue uptake at 24 h (% ID/g Femur): 0.42 %ID/g
tissue uptake at 72 h (% ID/g Femur): 0.1 %ID/g
tissue uptake at 4 h (% ID/g Heart): 0.84 %ID/g
tissue uptake at 24 h (% ID/g Heart): 0.38 %ID/g
tissue uptake at 72 h (% ID/g Heart): 0.12 %ID/g
tissue uptake at 4 h (% ID/g Intestine): 1.8 %ID/g
tissue uptake at 24 h (% ID/g Intestine): 0.76 %ID/g
tissue uptake at 72 h (% ID/g Intestine): 0.24 %ID/g
tissue uptake at 4 h (% ID/g Kidney): 25.7 %ID/g
tissue uptake at 24 h (% ID/g Kidney): 12 %ID/g
tissue uptake at 72 h (% ID/g Kidney): 3.2 %ID/g
tissue uptake at 4 h (% ID/g Liver): 6.35 %ID/g
tissue uptake at 24 h (% ID/g Liver): 2.78 %ID/g
tissue uptake at 72 h (% ID/g Liver): 1.24 %ID/g
tissue uptake at 4 h (% ID/g Lung): 3.81 %ID/g
tissue uptake at 24 h (% ID/g Lung): 1.85 %ID/g
tissue uptake at 72 h (% ID/g Lung): 0.87 %ID/g
tissue uptake at 4 h (% ID/g Muscle): 0.3 %ID/g
tissue uptake at 24 h (% ID/g Muscle): 0.13 %ID/g
tissue uptake at 72 h (% ID/g Muscle): 0.02 %ID/g
tissue uptake at 4 h (% ID/g Pancreas): 3.71 %ID/g
tissue uptake at 24 h (% ID/g Pancreas): 0.94 %ID/g
tissue uptake at 72 h (% ID/g Pancreas): 0.15 %ID/g
tissue uptake at 4 h (% ID/g Spleen): 0.76 %ID/g
tissue uptake at 24 h (% ID/g Spleen): 0.31 %ID/g
tissue uptake at 72 h (% ID/g Spleen): 0.07 %ID/g
tissue uptake at 4 h (% ID/g Stomach): 6.28 %ID/g
tissue uptake at 24 h (% ID/g Stomach): 4.63 %ID/g
tissue uptake at 72 h (% ID/g Stomach): 1.26 %ID/g
tissue uptake at 4 h (% ID/g Tumor): 41.8 %ID/g
tissue uptake at 24 h (% ID/g Tumor): 27.5 %ID/g
tissue uptake at 72 h (% ID/g Tumor): 9.48 %ID/g

C[C@@H](O)[C@H](NC(=O)[C@@H]1CSSC[C@H](NC(=O)[C@@H](Cc2ccccc2)NC(=O)CNC(=O)[C@H](CO)NC(=O)CNC(=O)[C@H](CCCCNC(=O)c2cccc(NC(=O)N[C@@H]3CN(C4CCCCC4)c4ccccc4N(CC(=O)C(C)(C)C)C3=O)c2)NC(=O)CN2CCN(CC(=O)O)CCN(CC(=O)O)CCN(CC(=O)O)CC2)C(=O)N[C@@H](Cc2ccc(O)cc2)C(=O)N[C@H](Cc2c[nH]c3ccccc23)C(=O)N[C@@H](CCCCN)C(=O)N[C@@H]([C@@H](C)O)C(=O)N1)C(=O)O [Compound 177Lu-I-54, metal not drawn] ({DOTA}-K([3Abz-CO-X1])GSG[dF]CY[dW]KTCT-OH; disulfide 6-11)
tissue uptake at 4 h (% ID/g Adrenal gland): 2.34 %ID/g
tissue uptake at 24 h (% ID/g Adrenal gland): 1.64 %ID/g
tissue uptake at 72 h (% ID/g Adrenal gland): 1.12 %ID/g
tissue uptake at 4 h (% ID/g Blood): 0.81 %ID/g
tissue uptake at 24 h (% ID/g Blood): 0.16 %ID/g
tissue uptake at 72 h (% ID/g Blood): 0.09 %ID/g
tissue uptake at 4 h (% ID/g Fat): 3.5 %ID/g
tissue uptake at 24 h (% ID/g Fat): 3.78 %ID/g
tissue uptake at 72 h (% ID/g Fat): 2.66 %ID/g
tissue uptake at 4 h (% ID/g Femur): 0.83 %ID/g
tissue uptake at 24 h (% ID/g Femur): 0.66 %ID/g
tissue uptake at 72 h (% ID/g Femur): 0.79 %ID/g
tissue uptake at 4 h (% ID/g Heart): 1.29 %ID/g
tissue uptake at 24 h (% ID/g Heart): 0.65 %ID/g
tissue uptake at 72 h (% ID/g Heart): 0.5 %ID/g
tissue uptake at 4 h (% ID/g Intestine): 2.07 %ID/g
tissue uptake at 24 h (% ID/g Intestine): 1.56 %ID/g
tissue uptake at 72 h (% ID/g Intestine): 1.14 %ID/g
tissue uptake at 4 h (% ID/g Kidney): 20.7 %ID/g
tissue uptake at 24 h (% ID/g Kidney): 10.5 %ID/g
tissue uptake at 72 h (% ID/g Kidney): 8.45 %ID/g
tissue uptake at 4 h (% ID/g Liver): 31.6 %ID/g
tissue uptake at 24 h (% ID/g Liver): 9.6 %ID/g
tissue uptake at 72 h (% ID/g Liver): 5.01 %ID/g
tissue uptake at 4 h (% ID/g Lung): 2.65 %ID/g
tissue uptake at 24 h (% ID/g Lung): 2.77 %ID/g
tissue uptake at 72 h (% ID/g Lung): 1.91 %ID/g
tissue uptake at 4 h (% ID/g Muscle): 0.3 %ID/g
tissue uptake at 24 h (% ID/g Muscle): 0.21 %ID/g
tissue uptake at 72 h (% ID/g Muscle): 0.16 %ID/g
tissue uptake at 4 h (% ID/g Pancreas): 3.91 %ID/g
tissue uptake at 24 h (% ID/g Pancreas): 2.65 %ID/g
tissue uptake at 72 h (% ID/g Pancreas): 2.42 %ID/g
tissue uptake at 4 h (% ID/g Spleen): 1.25 %ID/g
tissue uptake at 24 h (% ID/g Spleen): 0.71 %ID/g
tissue uptake at 72 h (% ID/g Spleen): 1.28 %ID/g
tissue uptake at 4 h (% ID/g Stomach): 4.81 %ID/g
tissue uptake at 24 h (% ID/g Stomach): 4.1 %ID/g
tissue uptake at 72 h (% ID/g Stomach): 4.2 %ID/g
tissue uptake at 4 h (% ID/g Tumor): 30 %ID/g
tissue uptake at 24 h (% ID/g Tumor): 25.7 %ID/g
tissue uptake at 72 h (% ID/g Tumor): 19.6 %ID/g
